According to patent US20220380463A1 (Adimab, published 2022):
Numbering of substitutions follows the chain as printed.

B1: SAD10318_P03_H08 (ADI-48607) (antibody, V domains shown)
VH: QVQLVQSGAEVKKPGASVKVSCKASGFNIKDYYMHWVRQAPGQRLEWMGWIDLENANTIYDAKFQGRVTITRDTSASTAYMELSSLRSEDTAVYYCARDAYHHYFYDVWGQGTLVTVSS
VL: DIVMTQSPDSLAVSLGERATINCKSSQSLLNARTGHNHLAWYQQKPGQPPKLLIYWASTRESGVPDRFSGSGSGTDFTLTISSLQAEDVAVYYCHQSHSRRTFGGGTKVEIK
notes: IgG; also called Ab202
B2: SAD10318_P04_A12 (ADI-48618) (antibody, V domains shown)
VH: B1 VH with H103R, Y104H
VL: B1 VL with N31H, A32P, H36K, H38Y, H95K, H98Y, S99H, R100H
notes: IgG; also called Ab224
B3: SAD10318_P04_B11 (ADI-48614) (antibody, V domains shown)
VH: B1 VH with A100H, H103R
VL: B1 VL with R33H, H36K, H95K, H98Y
notes: IgG; also called Ab217
B4: SAD10318_P04_C10 (ADI-48612) (antibody, V domains shown)
VH: B1 VH with H102G, H103R, F105H, Y106H
VL: B1 VL with H98Y, S99H
notes: IgG; also called Ab210
B5: SAD10318_P04_C11 (ADI-48615) (antibody, V domains shown)
VH: B1 VH with A100H, Y101H, H102G, H103R
VL: B1 VL with H95K, H98Y
notes: IgG; also called Ab218
B6: SAD10318_P04_D10 (ADI-48613) (antibody, V domains shown)
VH: B1 VH with H102G, F105H
VL: B1 VL with N31H, H36K, H95K, H98Y
notes: IgG; also called Ab211
B7: SAD10318_P04_D11 (ADI-48616) (antibody, V domains shown)
VH: B1 VH with H102G
VL: B1 VL with H98Y, R100H
notes: IgG; also called Ab219
B8: SAD10318_P04_H11 (ADI-48617) (antibody, V domains shown)
VH: B1 VH with A100H, H102G, H103R, V108H
VL: B1 VL with S7Y, R33H, H38Y, H98Y, R100H
notes: IgG; also called Ab223
B9: SAD10319_P01_D01 (ADI-48622) (antibody, V domains shown)
VH: QVQLVQSGAEVKKPGASVKVSCKASGYTFKSYDMHWVRQAPGQRLEWMGWIDAGTGNTKYSQKFQGRVTITRDTSASTAYMELSSLRSEDTAVYYCARDAYGRYFYDVWGQGTLVTVSS
VL: B1 VL with H36K, H38Y, H95K, H98Y
notes: IgG; also called Ab231
B10: SAD10320_P01_A02 (ADI-48646) (antibody, V domains shown)
VH: B1 VH with H102P
VL: B1 VL with H36K, H38Y, H95K, H98Y, S99H, R100E
notes: IgG; also called Ab53
B11: SAD10320_P01_B01 (ADI-48643) (antibody, V domains shown)
VH: B1 VH with H102G, Y104I
VL: B1 VL with H36K, H38Y, H95K, H98Y, S99V, R100H
notes: IgG; also called Ab46
B12: SAD10320_P01_D01 (ADI-48644) (antibody, V domains shown)
VH: B1 VH with H102G, Y104G
VL: B1 VL with H36K, H38Y, H95K, H98Y, R100H
notes: IgG; also called Ab48
B13: SAD10320_P01_E01 (ADI-48645) (antibody, V domains shown)
VH: B1 VH with H102G, Y104V
VL: B1 VL with H36K, H38Y, H95K, H98Y, S99K, R100H
notes: IgG; also called Ab49
B14: SAD10320_P01_F03 (ADI-48647) (antibody, V domains shown)
VH: B1 VH with H102P
VL: B1 VL with H36K, H38Y, H95K, H98Y, S99L, R100H
notes: IgG; also called Ab65
B15: SAD10320_P02_B06 (ADI-48653) (antibody, V domains shown)
VH: B1 VH with H102G, Y104W
VL: B1 VL with H36K, H38Y, H95K, H98Y, S99H, R100H
notes: IgG; also called Ab83
B16: SAD10320_P02_C04 (ADI-48648) (antibody, V domains shown)
VH: B1 VH with H102G, H103R
VL: B1 VL with H36K, H38Y, H95K, S99T
notes: IgG; also called Ab71
B17: SAD10320_P02_C06 (ADI-48654) (antibody, V domains shown)
VH: B1 VH with H102G, H103R
VL: B1 VL with H36K, H38Y, H95K, H98G, S99H
notes: IgG; also called Ab84
B18: SAD10320_P02_E04 (ADI-48649) (antibody, V domains shown)
VH: B1 VH with H103E
VL: B1 VL with H36K, H38Y, H95K, S99V
notes: IgG; also called Ab72
B19: SAD10320_P02_F05 (ADI-48651) (antibody, V domains shown)
VH: B1 VH with H102G, H103R, F105H
VL: B1 VL with H36K, H38Y, H95K, H98Y, S99R, R100H
notes: IgG; also called Ab79
B20: SAD10320_P02_H05 (ADI-48652) (antibody, V domains shown)
VH: B1 VH with Y101H, H103R
VL: B1 VL with H36K, H38Y, H95K
notes: IgG; also called Ab81
B21: SAD10320_P03_D09 (ADI-48655) (antibody, V domains shown)
VH: B1 VH with H102G, Y104D
VL: B1 VL with H36K, H38Y, H95K, H98W, S99H
notes: IgG; also called Ab100
B22: SAD10320_P03_F09 (ADI-48656) (antibody, V domains shown)
VH: B1 VH with H102G, Y104D
VL: B1 VL with H36K, H38Y, H95K, H98Y, S99H
notes: IgG; also called Ab101
B23: SAD10320_P04_E10 (ADI-48657) (antibody, V domains shown)
VH: B1 VH with L45P, H102G, Y104D
VL: B1 VL with H36K, H38Y, H95K, H98Y
notes: IgG; also called Ab106
B24: SAD10320_P04_G10 (ADI-48658) (antibody, V domains shown)
VH: B1 VH with H102G, Y104D
VL: B1 VL with H36K, H38Y, H95K, H98Y
notes: IgG; also called Ab108
B25: SAD10320_P04_H11 (ADI-48662) (antibody, V domains shown)
VH: B1 VH with H102G, Y104V
VL: B1 VL with H36K, H38Y, H95K, H98Y, S99Q, R100H
notes: IgG; also called Ab116
B26: SAD10318_P02_C05 (ADI-48597) (antibody, V domains shown)
VH: B1 VH with Y101H, H103R
VL: DIVMTQSPDSLAVSLGERATINCKSSQSLLNARTGHNHLAWYQQKPGQPPKLLIYWASTRESGVPDRFSGSGSGTDFTLTISSLQAEDVAVYYCKQSHSHRTFGGGTKVEI
notes: IgG; also called Ab180
B27: SAD10320_P02_D05 (ADI-48650) (antibody, V domains shown)
VH: B1 VH with Y101T, H103R
VL: B26 VL with H36K, H38Y, S99T, H100R
notes: IgG; also called Ab77

Molecular target: T1, human CD3 on CD3+ Jurkat cells (human, UniProt P07766 23-207)
T1 construct: whole, on cells; Native CD3 complex on cells; the other CD3 chains are not specified for this assay; also called Human CD3+ Jurkat
Test: flow cytometry on CD3+ Jurkat cells, ratio of MFI at pH 6.0 to pH 7.4
Procedure: (§1) Specificity of the anti-CD3 antibodies for human CD3+ Jurkat cells compared to CHO-S cells at pH 6.0 and 7.4 was determined using a FACS cell binding assay. Briefly, CD3+ human Jurkat cells and CHO-S cells were thawed and washed with cold PBSF buffer, pH 7.4 (PBS+0.1% BSA, pH 7.4). About 200,000 cells were aliquoted per well of a 96-well plate and pelleted by centrifugation (5 minutes at 500×g). The cells were washed with either PBSF pH 7.4 or PBSF pH 6.0 (PBS+0.1% BSA, pH 6.0), and then resuspended in 100 ul in either PBSF pH 7.4 or PBSF pH 6.0 with IgG antibody produced in yeast (100 nM). The mixture (cells+antibody) was incubated for 20 minutes on ice, then washed twice with either PBSF pH 7.4 or PBSF pH 6.0. Cells were resuspended in 50 ul of propidium iodide (1:500 dilution) and anti-human IgG-RPE (1:100 dilution) prepared in either PBSF pH 7.4 or PBSF pH 6.0, then incubated for 20 minutes on ice in the dark before cells were washed twice with either PBSF pH 7.4 or PBSF pH 6.0. Binding was analyzed on FACS Canto II.
(§2) Cell binding assays. CD3+ human Jurkat cells (ATCC) and CHO-S cells (Invitrogen/ThermoFisher) were thawed and washed with cold PBSF buffer, pH 7.4 (PBS+0.1% BSA, pH 7.4). About 200,000 cells were aliquoted per well of a 96-well plate (FACS Assay Plate VWR BD 353263) and pelleted by centrifugation (5 minutes at 500×g). The cells were washed with either PBSF pH 7.4 or PBSF pH 6.0 (PBS+0.1% BSA, pH 6.0), and then resuspended in 100 ul in either PBSF pH 7.4 or PBSF pH 6.0 with IgG antibody (100 nM) produced in yeast as described above. The mixture (cells+antibody) was incubated for 20 minutes on ice, then washed twice with either PBSF pH 7.4 or PBSF pH 6.0. Cells were resuspended in 50 ul of propidium iodide (Roche; 1:500 dilution) and anti-human IgG-RPE (Southern Biotech; 1:100 dilution) prepared in either PBSF pH 7.4 or PBSF pH 6.0, then incubated for 20 minutes on ice in the dark before cells were washed twice with either PBSF pH 7.4 or PBSF pH 6.0. Binding was analyzed on FACS Canto II.

T1 sequence (P07766 23-207): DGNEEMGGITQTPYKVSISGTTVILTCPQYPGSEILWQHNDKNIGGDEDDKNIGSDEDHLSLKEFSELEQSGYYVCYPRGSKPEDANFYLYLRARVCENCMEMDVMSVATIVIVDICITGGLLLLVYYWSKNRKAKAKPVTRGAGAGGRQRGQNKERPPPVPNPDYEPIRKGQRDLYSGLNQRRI

Binder | MFI pH 6.0/MFI pH 7.4
B1 | 1.7
B2 | 4.2
B3 | 2.6
B4 | 0.8
B5 | 1.1
B6 | 0.8
B7 | 0.9
B8 | 3.1
B9 | 5.4
B10 | 24.1
B11 | 15.9
B12 | 6.9
B13 | 11.1
B14 | 30.9
B15 | 3
B16 | 1.2
B17 | 1.1
B18 | 3.6
B19 | 1.4
B20 | 1.2
B21 | 2
B22 | 4.9
B23 | 11.7
B24 | 0.4
B25 | 1.8
B26 | 21.7
B27 | 1.1

Molecular target: T1, human CD3 on CD3+ Jurkat cells
Test: flow cytometry, 100 nM IgG on CD3+ Jurkat cells, pH 7.4
Procedure: as §1, §2

Binder | MFI pH 7.4
B1 | 52 MFI
B2 | 41 MFI
B3 | 58 MFI
B4 | 50 MFI
B5 | 37 MFI
B6 | 66 MFI
B7 | 41 MFI
B8 | 53 MFI
B9 | 567 MFI
B10 | 53 MFI
B11 | 265 MFI
B12 | 124 MFI
B13 | 41 MFI
B14 | 141 MFI
B15 | 1030 MFI
B16 | 5140 MFI
B17 | 4890 MFI
B18 | 639 MFI
B19 | 4110 MFI
B20 | 4760 MFI
B21 | 581 MFI
B22 | 38 MFI
B23 | 67 MFI
B24 | 316 MFI
B25 | 44 MFI
B26 | 61 MFI
B27 | 5430 MFI

Molecular target: T1, human CD3 on CD3+ Jurkat cells
Test: flow cytometry, 100 nM IgG on CD3+ Jurkat cells, pH 6.0
Procedure: as §1, §2

Binder | MFI pH 6.0
B1 | 86 MFI
B2 | 170 MFI
B3 | 148 MFI
B4 | 42 MFI
B5 | 40 MFI
B6 | 52 MFI
B7 | 36 MFI
B8 | 166 MFI
B9 | 3060 MFI
B10 | 1270 MFI
B11 | 4200 MFI
B12 | 860 MFI
B13 | 450 MFI
B14 | 4340 MFI
B15 | 3110 MFI
B16 | 6160 MFI
B17 | 5590 MFI
B18 | 2320 MFI
B19 | 5620 MFI
B20 | 5750 MFI
B21 | 1180 MFI
B22 | 185 MFI
B23 | 786 MFI
B24 | 113 MFI
B25 | 81 MFI
B26 | 1320 MFI
B27 | 6010 MFI
